# Source: paper PMC2425480 (Nucleic Acids Research, 2008)
# Biological target: the molecule itself
# Test: crystal structure
protein,measurement,value
"Sulfolobus solfataricus MCM protein N-terminal domain (residues 1–268) (domain or fragment, UniProt Q9UXG1 1-268, looked up) MEIPSKQIDYRDVFIEFLTTFKGNNNQNKYIERINELVAYRKKSLIIEFSDVLSFNENLAYEIINNTKIILPILEGALYDHILQLDPTYQRDIEKVHVRIVGIPRVIELRKIRSTDIGKLITIDGILVKVTPVKERIYKATYKHIHPDCMQEFEWPEDEEMPEVLEMPTICPKCGKPGQFRLIPEKTKLIDWQKAVIQERPEEVPSGQLPRQLEIILEDDLVDSARPGDRVKVTGILDIKQDSPVKRGSRAVFDIYMKVSSIEVSQKV",stoichiometry N,6
